Test results taken from patent US5550213.

Target: Urokinase plasminogen activator (Homo sapiens (Human)) (UniProt P00749)
Experiment: inhibition of UK activity; Ki by non-linear regression (Enzfitter) of free enzyme versus inhibitor concentration

Ki: 1.79 µM
Substance: mutant with arginine at the P1 site of OM3TKY (designed binder)
